Source: the supplement of paper PMC10567573

B1: MED27 (parent)
chain: YNENVYTEDGKLDIWSKSNYQVFQ

Variants of: B1
Assay: protein stability index of a GFP-peptide fusion (GPS, HEK-293T) (PSI 1-6); higher = more stable
Details: c terminus: a fixed tail appended
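Note: lentivirally expressed fusions sorted by FACS into six bins by GFP to DsRed ratio, PSI derived from sequencing read proportions per bin multiplied by bin number.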

Variant | protein stability index
YNENVYTEDYKLDIWSKSNYQVFQ | 1.76
YNENVYTEDIKLDIWSKSNYQVFQ | 1.93
YNENVYTEDVKLDIWSKSNYQVFQ | 1.96
YNENVYTEDKKLDIWSKSNYQVFQ | 2.91
YNENVYTEDGKLDIWSKSNYQRFQ | 2.21
YNENVYTEDGKLDIWSKSNYQDFQ | 2.83
YNENVYTEDGKLDIWSKSNYQTFQ | 2.45
YNENVYTEDGKLDIWSKSNYQWFQ | 1.76
YNENVYTEDGKLDIWSKSNYQLFQ | 2.28
YNENVYTEDGKLDIWSKSNYQQFQ | 2.73
YNENVYTEDGKLDIWSKSNYQPFQ | 2.66
YNENVYTEDGKLDIWSKSNYQEFQ | 2.52
YNENVYTEDGKLDIWSKSNYQMFQ | 2.37
YNENVYTEDGKLDIWSKSNYQNFQ | 2.41
YNENVYGEDGKLDIWSKSNYQVFQ | 2.53
YNENVYSEDGKLDIWSKSNYQVFQ | 1.95
YNENVYKEDGKLDIWSKSNYQVFQ | 2.35
YNENVYDEDGKLDIWSKSNYQVFQ | 2.7
YNENVYVEDGKLDIWSKSNYQVFQ | 2.05
YNENVYYEDGKLDIWSKSNYQVFQ | 2.46
YNENVYPEDGKLDIWSKSNYQVFQ | 2.21
YNENVYQEDGKLDIWSKSNYQVFQ | 2.48
YNENVYNEDGKLDIWSKSNYQVFQ | 2.14
YNENVYCEDGKLDIWSKSNYQVFQ | 2.63

Variant | protein stability index
YNENVYTEIGKLDIWSKSNYQVFQ | 1.71
YNENVYTEPGKLDIWSKSNYQVFQ | 2.03
YNENVYTEYGKLDIWSKSNYQVFQ | 2.03
YNENVYTEVGKLDIWSKSNYQVFQ | 1.98
YNENVYTEAGKLDIWSKSNYQVFQ | 1.65
YNENVYTEFGKLDIWSKSNYQVFQ | 1.76
YNENVYTESGKLDIWSKSNYQVFQ | 1.96
YNENVYTEKGKLDIWSKSNYQVFQ | 2.02
YNENVYTEDGKMDIWSKSNYQVFQ | 2.07
YNENVYTEDGKDDIWSKSNYQVFQ | 3.34
YNENVYTEDGKADIWSKSNYQVFQ | 2.5
YNENVYTEDGKRDIWSKSNYQVFQ | 2.01
YNENVYTEDGKPDIWSKSNYQVFQ | 2.39
YNENVYTEDGKIDIWSKSNYQVFQ | 2.23
YNENVYTEDGKHDIWSKSNYQVFQ | 2.07
YNENVYTEDGKTDIWSKSNYQVFQ | 2.21
YNENVYTEDGKCDIWSKSNYQVFQ | 2.33
YNENVYTEDGKYDIWSKSNYQVFQ | 1.93
YNEDVYTEDGKLDIWSKSNYQVFQ | 2.21
YNEAVYTEDGKLDIWSKSNYQVFQ | 2.54
YNERVYTEDGKLDIWSKSNYQVFQ | 2.31
YNELVYTEDGKLDIWSKSNYQVFQ | 1.99
YNEWVYTEDGKLDIWSKSNYQVFQ | 1.15
YNEGVYTEDGKLDIWSKSNYQVFQ | 2.37

Variant | protein stability index
YNEKVYTEDGKLDIWSKSNYQVFQ | 1.8
YNEVVYTEDGKLDIWSKSNYQVFQ | 1.89
YKENVYTEDGKLDIWSKSNYQVFQ | 2.91
YWENVYTEDGKLDIWSKSNYQVFQ | 1.69
YIENVYTEDGKLDIWSKSNYQVFQ | 1.68
YRENVYTEDGKLDIWSKSNYQVFQ | 2.4
YSENVYTEDGKLDIWSKSNYQVFQ | 2.02
YCENVYTEDGKLDIWSKSNYQVFQ | 2.47
YPENVYTEDGKLDIWSKSNYQVFQ | 2.09
YVENVYTEDGKLDIWSKSNYQVFQ | 3.18
YLENVYTEDGKLDIWSKSNYQVFQ | 1.68
YMENVYTEDGKLDIWSKSNYQVFQ | 2.01
YNENVYTEDGKLDIWSKSNYQVFY | 2.01
YNENVYTEDGKLDIWSKSNYQVFC | 2.3
YNENVYTEDGKLDIWSKSNYQVFG | 2.21
YNENVYTEDGKLDIWSKSNYQVFK | 2.58
YNENVYTEDGKLDIWSKSNYQVFR | 1.86
YNENVYTEDGKLDIWSKSNYQVFH | 2.17
YNENVYTEDGKLDIWSKSQYQVFQ | 2.26
YNENVYTEDGKLDIWSKSYYQVFQ | 2.56
YNENVYTEDGKLDIWSKSWYQVFQ | 1.73
YNENVYTEDGKLDIWSKSRYQVFQ | 2.4
YNENVYTEDGKLDIWSKSSYQVFQ | 2.05
YNENVYTEDGKLDIWSKSDYQVFQ | 2.75

Variant | protein stability index
YNENVYTEDGKLDIFSKSNYQVFQ | 2.81
YNENVYTEDGKLDITSKSNYQVFQ | 3.7
YNENVYTEDGKLDIYSKSNYQVFQ | 3.19
YNENVYTEDGKLDICSKSNYQVFQ | 3.74
YNENVYTEDGKLDIESKSNYQVFQ | 4.12
YNENVYTEDGKLDIQSKSNYQVFQ | 3.89
YNENVYTEDGKLDIVSKSNYQVFQ | 3.5
YNENVYTEDGKLDIPSKSNYQVFQ | 3.74
YNENVYTEDGKLDIISKSNYQVFQ | 3.31
YNENVYTEDGKLDVWSKSNYQVFQ | 2.62
YNENVYTEDGKLDDWSKSNYQVFQ | 3.48
YNENVYTEDGKLDNWSKSNYQVFQ | 3.28
YNENVYTEDGKLDKWSKSNYQVFQ | 2.71
YNENVYTEDGKLDYWSKSNYQVFQ | 1.95
YNENVYTEDGKLDRWSKSNYQVFQ | 3.23
YNENVYTEDGKLDFWSKSNYQVFQ | 2.3
YNENVYTEDGKLDPWSKSNYQVFQ | 2.29
WNENVYTEDGKLDIWSKSNYQVFQ | 2.93
RNENVYTEDGKLDIWSKSNYQVFQ | 3.11
NNENVYTEDGKLDIWSKSNYQVFQ | 3.35
FNENVYTEDGKLDIWSKSNYQVFQ | 2.27
GNENVYTEDGKLDIWSKSNYQVFQ | 3.7
